Measurements from paper PMC13036491, “RNA binding protein Musashi1 interacts with the viral genomic RNA and restricts SARS-CoV-2 infection by repressing translation”.

Target: GST-Msi1 (Homo sapiens, UniProt O43347 1-362)
Test: EMSA; GST-Msi1 ~1.5-9 uM; dose-dependent
Details: protein: recombinant; tags: N-terminal GST (pGEX 5X-2); label: fluorescein-12-UTP

Chain of GST-Msi1 (O43347 whole entry): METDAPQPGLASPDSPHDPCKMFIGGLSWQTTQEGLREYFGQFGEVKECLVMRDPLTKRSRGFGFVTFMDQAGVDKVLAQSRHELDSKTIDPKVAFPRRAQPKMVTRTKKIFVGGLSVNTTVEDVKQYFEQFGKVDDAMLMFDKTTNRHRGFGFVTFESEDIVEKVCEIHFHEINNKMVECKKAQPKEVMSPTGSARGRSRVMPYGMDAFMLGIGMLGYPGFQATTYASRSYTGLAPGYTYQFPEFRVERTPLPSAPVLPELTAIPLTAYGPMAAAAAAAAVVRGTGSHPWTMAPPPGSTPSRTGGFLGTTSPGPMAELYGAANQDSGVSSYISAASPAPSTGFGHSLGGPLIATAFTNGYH

## GGGAUUUUAGUAGUGCUAUCCCCA (ssRNA) [M2 RNA (HVR MBE)]
  binding result: binds
